# Measurements reported in patent US11278600B2, “Human alpha-galactosidase variants” (Codexis, Inc., priority 2014, dated 2022).
# Numbering of substitutions follows the chain as printed.
# B1: 605 (protein)
# chain: LDNGLARTPPMGWLHWERFMCNLDCQEEPDSCISEKLFMEMAERMVSEGWKDAGYEYLCIDDCWMAPQRDSEGRLQADPQRFPHGIRQLANHVHSKGLKLGIYADVGNKTCAGFPGSFGYYDIDAQTFADWGVDLLKFDGCYCDSLENLADGYKHMSLALNRTGRSIVYSCEWPLYMWPFQKPNYTEIRQYCNHWRNFADIDDSWASIKSILDWTSRNQERIVDVAGPGGWNDPDMLVIGNFGLSWDQQVTQMALWAIMAAPLFMSNDLRHISPQAKALLQDKDVIAINQDPLGKQGYQLRKGDNFEVWERPLSGDAWAVAIINRQEIGGPRSYTIPVASLGKGVACNPACFITQLLPVKRQLGFYNWTSRLKSHINPTGTVLLQLENTMQMSLKDLL
# modifications: Synthetic Polypeptide sequence of Variant No. 605 of mature Human GLA
# B2: 529 (protein)
# chain: B1 chain with P10T, K182A
# modifications: Synthetic Polypeptide sequence of Variant No. 529 of mature Human GLA
# B3: 534 (protein)
# chain: B1 chain with P10T, K182R
# modifications: Synthetic Polypeptide sequence of Variant No. 534 of mature Human GLA
# B4: 530 (protein)
# chain: B1 chain with P10T, K182E
# modifications: Synthetic Polypeptide sequence of Variant No. 530 of mature Human GLA
# B5: 523 (protein)
# chain: B1 chain with P10T, N91M
# modifications: Synthetic Polypeptide sequence of Variant No. 523 of mature Human GLA
# B6: 607 (protein)
# chain: B1 chain with T8L, P10T
# modifications: Synthetic Polypeptide sequence of Variant No. 607 of mature Human GLA
# B7: 606 (protein)
# chain: B1 chain with R189L
# modifications: Synthetic Polypeptide sequence of Variant No. 606 of mature Human GLA
# B8: 608 (protein)
# chain: B1 chain with T8Q, P10T
# modifications: Synthetic Polypeptide sequence of Variant No. 608 of mature Human GLA
# B9: 524 (protein)
# chain: B1 chain with P10T, N91V
# modifications: Synthetic Polypeptide sequence of Variant No. 524 of mature Human GLA
# B10: 527 (protein)
# chain: B1 chain with P10T, H92E
# modifications: Synthetic Polypeptide sequence of Variant No. 527 of mature Human GLA
# B11: 526 (protein)
# chain: B1 chain with P10T, R74H
# modifications: Synthetic Polypeptide sequence of Variant No. 526 of mature Human GLA
# B12: 531 (protein)
# chain: B1 chain with P10T, K182H
# modifications: Synthetic Polypeptide sequence of Variant No. 531 of mature Human GLA
# B13: 532 (protein)
# chain: B1 chain with P10T, K182M
# modifications: Synthetic Polypeptide sequence of Variant No. 532 of mature Human GLA
# B14: 525 (protein)
# chain: B1 chain with P10T, Q76H, W368A
# modifications: Synthetic Polypeptide sequence of Variant No. 525 of mature Human GLA
# B15: 533 (protein)
# chain: B1 chain with P10T, K182Q
# modifications: Synthetic Polypeptide sequence of Variant No. 533 of mature Human GLA
# B16: 528 (protein)
# chain: B1 chain with P10T, D130Q
# modifications: Synthetic Polypeptide sequence of Variant No. 528 of mature Human GLA
# Assay: HTP-analysis of supernatants pretreated with base (MUGal hydrolysis)
# Assay type: biochemical
# Conditions: activity of the variant/activity of Rd3BB (SEQ ID NO: 13); challenge at pH 9.7
# In short: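 Fluorescence of released 4-MU (Ex 355 nm, Em 448 nm) after carbonate quench reports MUGal hydrolysis by GLA variants secreted from INVSc1 yeast. Before the acidic (pH 4.3-4.8) 30-180 min reaction at 37° C, supernatants had been pre-incubated at pH 7.0-9.7 for 1-18 h at 37° C.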
row,Molecule,Relative Activity of GLA Variants After Challenge at pH 9.7
1,B1,++ (++ = >5 to 10 relative activity over Rd3BB (SEQ ID NO: 13))
2,B2,++ (++ = >5 to 10 relative activity over Rd3BB (SEQ ID NO: 13))
3,B3,++ (++ = >5 to 10 relative activity over Rd3BB (SEQ ID NO: 13))
4,B4,++ (++ = >5 to 10 relative activity over Rd3BB (SEQ ID NO: 13))
5,B5,+ (+ = 1.5 to 5 relative activity over Rd3BB (SEQ ID NO: 13))
6,B6,++ (++ = >5 to 10 relative activity over Rd3BB (SEQ ID NO: 13))
7,B7,++ (++ = >5 to 10 relative activity over Rd3BB (SEQ ID NO: 13))
8,B8,+ (+ = 1.5 to 5 relative activity over Rd3BB (SEQ ID NO: 13))
9,B9,+ (+ = 1.5 to 5 relative activity over Rd3BB (SEQ ID NO: 13))
10,B10,++ (++ = >5 to 10 relative activity over Rd3BB (SEQ ID NO: 13))
11,B11,++ (++ = >5 to 10 relative activity over Rd3BB (SEQ ID NO: 13))
12,B12,++ (++ = >5 to 10 relative activity over Rd3BB (SEQ ID NO: 13))
13,B13,++ (++ = >5 to 10 relative activity over Rd3BB (SEQ ID NO: 13))
14,B14,++ (++ = >5 to 10 relative activity over Rd3BB (SEQ ID NO: 13))
15,B15,++ (++ = >5 to 10 relative activity over Rd3BB (SEQ ID NO: 13))
16,B16,++ (++ = >5 to 10 relative activity over Rd3BB (SEQ ID NO: 13))

# Assay: HTP-analysis of yeast culture supernatants, no challenge (MUGal hydrolysis)
# Assay type: biochemical
# Conditions: activity of the variant/activity of Rd3BB (SEQ ID NO: 13)
# In short: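 GLA variants expressed in yeast INVSc1, secreted into SD-Ura broth over 66-84 h at 30° C; clarified supernatants tested without challenge. Supernatant mixed with McIlvaine buffer pH 4.8 and 2 mM MUGal (citrate/KCl, pH 4.6), 37° C for 30-180 min, carbonate-quenched, fluorescence Ex 355/Em 448 nm.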
row,Molecule,Relative Activity of GLA Variants After No Challenge (NC)
1,B1,+ (+ = 1.5 to 5 relative activity over Rd3BB (SEQ ID NO: 13))
2,B2,+ (+ = 1.5 to 5 relative activity over Rd3BB (SEQ ID NO: 13))
3,B3,+ (+ = 1.5 to 5 relative activity over Rd3BB (SEQ ID NO: 13))
4,B4,+ (+ = 1.5 to 5 relative activity over Rd3BB (SEQ ID NO: 13))
5,B5,+ (+ = 1.5 to 5 relative activity over Rd3BB (SEQ ID NO: 13))
6,B6,+ (+ = 1.5 to 5 relative activity over Rd3BB (SEQ ID NO: 13))
7,B7,+ (+ = 1.5 to 5 relative activity over Rd3BB (SEQ ID NO: 13))
8,B8,+ (+ = 1.5 to 5 relative activity over Rd3BB (SEQ ID NO: 13))
9,B9,− (− = <1.5 relative activity to Rd3BB (SEQ ID NO: 13))
10,B10,+ (+ = 1.5 to 5 relative activity over Rd3BB (SEQ ID NO: 13))
11,B11,+ (+ = 1.5 to 5 relative activity over Rd3BB (SEQ ID NO: 13))
12,B12,+ (+ = 1.5 to 5 relative activity over Rd3BB (SEQ ID NO: 13))
13,B13,+ (+ = 1.5 to 5 relative activity over Rd3BB (SEQ ID NO: 13))
14,B14,+ (+ = 1.5 to 5 relative activity over Rd3BB (SEQ ID NO: 13))
15,B15,+ (+ = 1.5 to 5 relative activity over Rd3BB (SEQ ID NO: 13))
16,B16,+ (+ = 1.5 to 5 relative activity over Rd3BB (SEQ ID NO: 13))

# Assay: HTP-analysis of supernatants pretreated with acid (MUGal hydrolysis)
# Assay type: biochemical
# Conditions: activity of the variant/activity of Rd3BB (SEQ ID NO: 13); challenge at pH 3.7
# In short: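 Fluorescence of MUGal hydrolysis (Ex. 355 nm, Em. 448 nm) is read after sodium carbonate quench. The enzyme source is INVSc1 yeast culture supernatant, first exposed to pH 3.3-4.3 McIlvaine buffer at 37° C. for 1-3 h, then reacted at pH 4.8 for 30-180 minutes.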
row,Molecule,Relative Activity of GLA Variants After Challenge at pH 3.7
1,B1,+++ (+++ = >10 relative activity over Rd3BB (SEQ ID NO: 13))
2,B2,+ (+ = 1.5 to 5 relative activity over Rd3BB (SEQ ID NO: 13))
3,B3,+ (+ = 1.5 to 5 relative activity over Rd3BB (SEQ ID NO: 13))
4,B4,+ (+ = 1.5 to 5 relative activity over Rd3BB (SEQ ID NO: 13))
5,B5,+ (+ = 1.5 to 5 relative activity over Rd3BB (SEQ ID NO: 13))
6,B6,+ (+ = 1.5 to 5 relative activity over Rd3BB (SEQ ID NO: 13))
7,B7,+++ (+++ = >10 relative activity over Rd3BB (SEQ ID NO: 13))
8,B8,+ (+ = 1.5 to 5 relative activity over Rd3BB (SEQ ID NO: 13))
9,B9,+ (+ = 1.5 to 5 relative activity over Rd3BB (SEQ ID NO: 13))
10,B10,+ (+ = 1.5 to 5 relative activity over Rd3BB (SEQ ID NO: 13))
11,B11,+ (+ = 1.5 to 5 relative activity over Rd3BB (SEQ ID NO: 13))
12,B12,+ (+ = 1.5 to 5 relative activity over Rd3BB (SEQ ID NO: 13))
13,B13,+ (+ = 1.5 to 5 relative activity over Rd3BB (SEQ ID NO: 13))
14,B14,++ (++ = >5 to 10 relative activity over Rd3BB (SEQ ID NO: 13))
15,B15,+ (+ = 1.5 to 5 relative activity over Rd3BB (SEQ ID NO: 13))
16,B16,+ (+ = 1.5 to 5 relative activity over Rd3BB (SEQ ID NO: 13))
